Measurements as given in patent US20220153859A1 (ANOKION, published 2022).
Residue numbers refer to the chain shown, from its start.

B1: CDRL2_18 (Fab, V domains shown)
VH: QVQLVQSGAEVKKPGASVKVSCTASGFNIKDTYMLWVRQAPGQGLEWMGRIDPANANSRYDPKFQGRVTITADTSTNTAYMELSSLRSEDTAVYYCVDGYMFAYWGQGTLVTVSS
VL: DVVMTQTPLSLSVTPGQPASISCKSSQSLLYSNGKTYLHWLLQKPGQSPQRLIYLLNRLHSGVPDRFSGSGSGTDFTLKISRVEAEDVGVYYCVQGTHFPLTFGQGTKLEIKR
notes: copies: 1 + 1
B2: CDRH1_14 (Fab, V domains shown)
VH: B1 VH with K30R, D31N, T32I, M34L
VL: B1 VL with L56V, N57S, R58K, H60D
notes: column Notes: 'Duplicate ELISA hit'; copies: 1 + 1
B3: CDRL2_37 (Fab, V domains shown)
VH: B1 VH
VL: B1 VL with L56S
notes: copies: 1 + 1
B4: CDRH1_1 (Fab, V domains shown)
VH: B1 VH with K30R, D31A, M34I
VL: B1 VL with L56V, N57S, R58K, H60D
notes: copies: 1 + 1
B5: CDRH1_25 (Fab, V domains shown)
VH: B1 VH with D31H, T32V, M34I
VL: B1 VL with L56V, N57S, R58K, H60D
notes: copies: 1 + 1
B6: CDRH1_24 (Fab, V domains shown)
VH: B1 VH with D31T, T32V, M34I
VL: B1 VL with L56V, N57S, R58K, H60D
notes: copies: 1 + 1
B7: CDRL2_32 (Fab, V domains shown)
VH: B1 VH
VL: B1 VL with H60S
notes: copies: 1 + 1
B8: CDRH1_15 (Fab, V domains shown)
VH: B1 VH with K30R, D31K, M34I
VL: B1 VL with L56V, N57S, R58K, H60D
notes: copies: 1 + 1
B9: CDRL2_49 (Fab, V domains shown)
VH: B1 VH
VL: B1 VL with L59M, H60S
notes: column Notes: 'ELISA Hit'; copies: 1 + 1
B10: CDRL2_33 (Fab, V domains shown)
VH: B1 VH
VL: B1 VL with L56N, N57S
notes: copies: 1 + 1
B11: Humanized 10F7-M10 Fab (non-affinity matured) (Fab)
heavy: EVQLLESGGGLVQPGKSLRLSCKASGYTFNSYFMHWVRQAPGKGLEWVGMIRPNGGTTDYNEKFKNRFTLSVDKSKNTAYLQMNSLRAEDTAVYYCARWEGSYYALDYWGQGTASTKGPSVFPLAPSSKSTSGGTAALGCLVKDYFPEPVTVSWNSGALTSGVHTFPAVLQSSGLYSLSSVVTVPSSSLGTQTYICNVNHKPSNTKVDKKVEPKSC
light: EITLTQSPATLSLSPGERATLSCRASSNVKYMYWYQQKPGQAPRLWIYYTSNLASGIPDRFSGSGSGTDYTLTISRLEPEDFAVYYCQQFTSSPYTFGQGTKVEVKRTVAAPSVFIFPPSDEQLKSGTASVVCLLNNFYPREAKVQWKVDNALQSGNSQESVTEQDSKDSTYSLSSTLTLSKADYEKHKVYACEVTHQGLSSPVTKSFNRGEC
notes: Soluble Fab expressed in HEK cells; also called clone m10; wild-type 10F7-M10
B12: Humanized & affinity matured 10F7-M10 Fab clone L1+2-14 (Fab)
heavy: B11 heavy
light: B11 light with K30H, Y31Q, Y48H, Y49H, N52K
notes: Soluble Fab from HEK cells; all domains other than VL are the same as wild-type 10F7-M10; also called HQ-HH-K
B13: Humanized & affinity matured 10F7-M10 Fab clone L1+2-21 (Fab)
heavy: B11 heavy
light: B11 light with K30Y, Y31F, Y48H, Y49H, N52V
notes: Soluble Fab from HEK cells; all domains other than VL are the same as wild-type 10F7-M10; also called YF-HH-V
B14: Humanized & affinity matured 10F7-M10 Fab clone L1+2-24 (Fab)
heavy: B11 heavy
light: B11 light with K30Q, Y31Q, Y48H, Y49H, N52I
notes: Soluble Fab from HEK cells; all domains other than VL are the same as wild-type 10F7-M10; also called QQ-HH-I
B15: Humanized & affinity matured 10F7-M10 Fab clone L1+2-28 (Fab)
heavy: B11 heavy
light: B11 light with K30Y, Y31W, Y48H, Y49H, N52D
notes: Soluble Fab from HEK cells; all domains other than VL are the same as wild-type 10F7-M10; also called YW-HH-D
B16: Humanized & affinity matured 10F7-M10 Fab clone L1+2-15 (Fab)
heavy: B11 heavy
light: B11 light with K30F, Y48H, Y49H, N52W
notes: Soluble Fab from HEK cells; all domains other than VL are the same as wild-type 10F7-M10; also called FY-HH-W
B17: Humanized & affinity matured 10F7-M10 Fab clone L1+2-1 (Fab)
heavy: B11 heavy
light: B11 light with K30F, Y31F, Y48H, Y49H
notes: Soluble Fab from HEK cells; all domains other than VL are the same as wild-type 10F7-M10; also called FF-HH-N
B18: Humanized & affinity matured 10F7-M10 Fab clone L1+2-25 (Fab)
heavy: B11 heavy
light: B11 light with K30A, Y31W, Y49H, N52K
notes: also called L1 + 2-8-25; AW-YH-K
B19: Humanized & affinity matured 10F7-M10 Fab clone L1+2-35 (Fab)
heavy: B11 heavy
light: B11 light with K30Y, Y31W, Y48H, Y49H, N52E
notes: Soluble Fab from HEK cells; all domains other than VL are the same as wild-type 10F7-M10; also called YW-HH-E
B20: Humanized & affinity matured 10F7-M10 Fab clone L1+2-17 (Fab)
heavy: B11 heavy
light: B11 light with K30Y, Y31F, Y48H, Y49H, N52D
notes: Soluble Fab from HEK cells; all domains other than VL are the same as wild-type 10F7-M10; also called YF-HH-D
B21: Humanized & affinity matured 10F7-M10 Fab clone L1+2-10 (Fab)
heavy: B11 heavy
light: B11 light with K30W, Y31F, Y48H, Y49H, N52E
notes: Soluble Fab from HEK cells; all domains other than VL are the same as wild-type 10F7-M10; also called WF-HH-E
B22: Humanized & affinity matured 10F7-M10 Fab clone L1+2-39 (Fab)
heavy: B11 heavy
light: B11 light with K30F, Y31F, Y48H, Y49H, N52V
notes: Soluble Fab from HEK cells; all domains other than VL are the same as wild-type 10F7-M10; also called FF-HH-V
B23: Humanized & affinity matured 10F7-M10 Fab clone L1+2-5 (Fab)
heavy: B11 heavy
light: B11 light with K30Y, Y31N, Y48H, Y49R
notes: Soluble Fab from HEK cells; all domains other than VL are the same as wild-type 10F7-M10; also called YN-HR-N
B24: Humanized & affinity matured 10F7-M10 Fab clone L1+2-8 (Fab)
heavy: B11 heavy
light: B11 light with K30I, Y31D, Y48H, Y49H, N52Y
notes: Soluble Fab from HEK cells; all domains other than VL are the same as wild-type 10F7-M10; also called ID-HH-Y

How the values were obtained:
[1] = target: T1, Human glycophorin A on human erythrocytes (human, UniProt P02724 20-150); test: FACS (flow cytometry) on human erythrocytes (hRBCs)
T1 construct: whole, on cells; Target of the flow cytometry assays on human erythrocytes; also called human GPA; hGPA
T1 sequence (looked up): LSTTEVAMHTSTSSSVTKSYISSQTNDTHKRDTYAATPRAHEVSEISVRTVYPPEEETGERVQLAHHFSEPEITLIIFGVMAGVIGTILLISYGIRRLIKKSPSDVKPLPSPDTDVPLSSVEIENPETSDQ
Procedure, shortened: (§1)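 After selection through next-generation-sequencing enrichment and phage ELISA screens, Fabs were expressed solubly in HEK cells. The highest-ranked ones were purified using CH1 resin. Their EC50 for binding human or cynomolgus erythrocytes came from flow cytometry.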

[2] = target: T2, Cynomolgus glycophorin A on cynomolgus erythrocytes (cynomolgus monkey); test: FACS (flow cytometry) on cynomolgus erythrocytes (cRBCs)
T2 construct: whole, on cells; also called cyno GPA; cyno erythrocytes
Procedure, shortened: as §1

[3] = target: T3, Human glycophorin A extract (hGPA extract) (human, UniProt P02724 20-150); test: Biacore SPR, hGPA extract, apparent
T3 construct: also called human GPA extracted from red blood cells (extract)
T3 sequence (looked up): T1 sequence (looked up)

[4] = target: T1, Human glycophorin A on human …; test: flow cytometry (FACS) on human erythrocytes, soluble Fab
[5] = target: T3, Human glycophorin A extract (hGPA …); test: Biacore SPR, hGPA extract, apparent KD
[6] = target: T3, Human glycophorin A extract (hGPA …); test: Octet BLI, hGPA extract, apparent
[7] = target: T3, Human glycophorin A extract (hGPA …); test: Octet BLI, hGPA extract, apparent KD
[8] = target: T3, Human glycophorin A extract (hGPA …); test: Biacore SPR, hGPA extract, apparent; biphasic off-rate to fit data
[9] = target: T3, Human glycophorin A extract (hGPA …); test: Octet BLI, hGPA extract, apparent KD; biphasic off-rate to fit data
[10] = target: T3, Human glycophorin A extract (hGPA …); test: Biacore SPR, hGPA extract, apparent KD; biphasic off-rate to fit data
[11] = target: T3, Human glycophorin A extract (hGPA …); test: Octet BLI, hGPA extract, apparent; biphasic off-rate to fit data

| Binder | EC50 [1] | EC50 [2] | koff [3] | kon [3] | EC50 [4] | Kd [5] | koff [6] | kon [6] | Kd [7] | other results |
| --- | --- | --- | --- | --- | --- | --- | --- | --- | --- | --- |
| B1 | 2.5 nM | 8.3 nM |  |  |  |  |  |  |  |  |
| B2 | 4.2 nM | 10.8 nM |  |  |  |  |  |  |  |  |
| B3 | 2.8 nM | 10.1 nM |  |  |  |  |  |  |  |  |
| B4 | 4.3 nM | 11.6 nM |  |  |  |  |  |  |  |  |
| B5 | 3.1 nM | 10.2 nM |  |  |  |  |  |  |  |  |
| B6 | 3.1 nM | 10.6 nM |  |  |  |  |  |  |  |  |
| B7 | 4.2 nM | 11.1 nM |  |  |  |  |  |  |  |  |
| B8 | 3.1 nM | 10.6 nM |  |  |  |  |  |  |  |  |
| B9 | 4.4 nM | 13 nM |  |  |  |  |  |  |  |  |
| B10 | 4.4 nM | 8.3 nM |  |  |  |  |  |  |  |  |
| B11 |  |  | 0.00667 s⁻¹ | 47300 M⁻¹ s⁻¹ | 73 nM | 141 nM | 0.0067 s⁻¹ | 47000 M⁻¹ s⁻¹ | 140 nM |  |
| B12 |  |  | 0.000568 s⁻¹ | 17300 M⁻¹ s⁻¹ | 6.4 nM | 32.8 nM | 0.00057 s⁻¹ | 17000 M⁻¹ s⁻¹ | 33 nM |  |
| B13 |  |  | 0.00132 s⁻¹ | 257000 M⁻¹ s⁻¹ | 3.7 nM | 5.12 nM | 0.0013 s⁻¹ | 260000 M⁻¹ s⁻¹ | 5.1 nM |  |
| B14 |  |  | 0.00802 s⁻¹ | 382000 M⁻¹ s⁻¹ | 23 nM | 21 nM | 0.008 s⁻¹ | 380000 M⁻¹ s⁻¹ | 21 nM |  |
| B15 |  |  | 0.00214 s⁻¹ | 614000 M⁻¹ s⁻¹ | 3.7 nM | 3.49 nM | 0.0021 s⁻¹ | 610000 M⁻¹ s⁻¹ | 3.5 nM |  |
| B16 |  |  | 0.00155 s⁻¹ | 222000 M⁻¹ s⁻¹ | 3.4 nM | 7 nM | 0.0016 s⁻¹ | 220000 M⁻¹ s⁻¹ | 7 nM |  |
| B17 |  |  | 0.00185 s⁻¹ | 311000 M⁻¹ s⁻¹ | 3.3 nM | 5.95 nM | 0.0018 s⁻¹ | 310000 M⁻¹ s⁻¹ | 5.9 nM |  |
| B18 |  |  |  |  | 100 nM |  |  |  |  |  |
| B19 |  |  | 0.00136 s⁻¹ | 81300 M⁻¹ s⁻¹ | 4.6 nM | 16.7 nM | 0.0014 s⁻¹ | 81000 M⁻¹ s⁻¹ | 17 nM |  |
| B20 |  |  | 0.000931 s⁻¹ | 156000 M⁻¹ s⁻¹ | 3.4 nM | 5.97 nM | 0.00093 s⁻¹ | 160000 M⁻¹ s⁻¹ | 6 nM |  |
| B21 |  |  | 0.00143 s⁻¹ | 222000 M⁻¹ s⁻¹ | 3.3 nM | 6.43 nM | 0.0014 s⁻¹ | 220000 M⁻¹ s⁻¹ | 6.4 nM |  |
| B22 |  |  | 0.00121 s⁻¹ | 250000 M⁻¹ s⁻¹ | 2.7 nM | 4.82 nM | 0.0012 s⁻¹ | 250000 M⁻¹ s⁻¹ | 4.8 nM |  |
| B23 |  |  |  |  | 8.8 nM |  |  |  |  | koff [8]: 0.00808 s⁻¹; kon [8]: 795000 M⁻¹ s⁻¹; Kd [9]: 10 nM; Kd [10]: 10.2 nM; koff [11]: 0.0081 s⁻¹; kon [11]: 790000 M⁻¹ s⁻¹ |
| B24 |  |  | 0.00218 s⁻¹ | 198000 M⁻¹ s⁻¹ | 14 nM | 11 nM | 0.0022 s⁻¹ | 200000 M⁻¹ s⁻¹ | 11 nM |  |
